Paper PMC7691350, “Integron gene cassettes harboring novel variants of D-alanine-D-alanine ligase confer high-level resistance to D-cycloserine” (Scientific Reports, 2020)
Read-outs that look alike come from different tables or passages of the source.

Assays:
Ddl6 = assay: PK/LDH-coupled spectrophotometric assay, […] nm; type: biochemical; conditions: 10 mM MgCl2, 10 mM KCl, 100 mM HEPES pH 7.5, 37 °C
C[C@@H](N)C(=O)O = assay: purified protein; conditions: second D-alanine binding, 500 µM ATP, 10 mM MgCl2, 10 mM KCl, 100 mM HEPES pH 7.5, 37 °C
[1] = tested on: Nc1ncnc2c1ncn2[C@@H]1O[C@H](COP(=O)(O)OP(=O)(O)OP(=O)(O)O)[C@@H](O)[C@H]1O; assay: purified protein; conditions: 100 mM D-alanine, ATP 5-320 µM, 10 mM MgCl2, 10 mM KCl, 100 mM HEPES pH 7.5, 37 °C

Row | Compound | Km (Ddl6; read-out: Km, ATP, 100 mM D-alanine, ATP 5-320 µM) [µM] | Km (Ddl6; second D-alanine binding, 500 µM ATP, read-out: Km, D-ala2) [µM] | Km (C[C@@H](N)C(=O)O) [µM] | kcat (C[C@@H](N)C(=O)O) [s⁻¹] | kcat/Km (C[C@@H](N)C(=O)O) [M⁻¹ s⁻¹] | Km [1] [µM]
1 | Nc1ncnc2c1ncn2[C@@H]1O[C@H](COP(=O)(O)OP(=O)(O)OP(=O)(O)O)[C@@H](O)[C@H]1O [ATP] | 55 | – | – | – | – | –
2 | C[C@@H](N)C(=O)O [D-alanine] | – | 390 | – | – | – | –
3 | DdlAEc (Escherichia coli K-12) | – | – | 520 | 6.43 | 12500 | 48.99
4 | DdlTd (Treponema denticola ATCC 35405) | – | – | 450 | 3.74 | 8290 | 19.08
